Here are results for one substance from article PMC4918322.

The experiment addresses PLK1 (UniProt P53350). Description: anti-V5 co-immunoprecipitation, PLK1 blot. Particulars: reference: wild-type RSF1-C1; sites S1375.

Take “RSF1 C1, 627-1441 (from UniProt Q96T23) S1375A”: the “binding against the reference” value is “lost”.
